Measurements as given in patent publication US20170128490A1.

Target: RGD-recognizing receptors (on monocytes)
Assay: cell-based or functional assay

Binder: RGDS [small RGD peptides, containing the amino-acid sequence Arg-Gly-Asp-Ser]
- long-duration monocyte-platelet interactions (video analysis, flow): 44 % decrease
